Data as given in patent US20040161448.

Tests used:
[1] = molecular target: T1, Soybean Kunitz Trypsin Inhibitor (UniProt P01070)
T1 sequence: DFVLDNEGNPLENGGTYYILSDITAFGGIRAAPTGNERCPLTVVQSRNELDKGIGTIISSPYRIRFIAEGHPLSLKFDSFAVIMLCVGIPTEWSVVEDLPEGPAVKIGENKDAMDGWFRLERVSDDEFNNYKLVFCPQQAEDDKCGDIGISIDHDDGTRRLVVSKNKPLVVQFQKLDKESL

[2] = molecular target: T2, soybean Bowman-Birk Inhibitor (UniProt P01055)
T2 sequence: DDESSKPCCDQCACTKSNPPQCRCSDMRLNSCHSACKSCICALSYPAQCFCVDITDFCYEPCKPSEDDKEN

soybean agglutinin (SBA) = soybean agglutinin (SBA) (UniProt P05046)
Sequence of soybean agglutinin (SBA) (P05046 33-285): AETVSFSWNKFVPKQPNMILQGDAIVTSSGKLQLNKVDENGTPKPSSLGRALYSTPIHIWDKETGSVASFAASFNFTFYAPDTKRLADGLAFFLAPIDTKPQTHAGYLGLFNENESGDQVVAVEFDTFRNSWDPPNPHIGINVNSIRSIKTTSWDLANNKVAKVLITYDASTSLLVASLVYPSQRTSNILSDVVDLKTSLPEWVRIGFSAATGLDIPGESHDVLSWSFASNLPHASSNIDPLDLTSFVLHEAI

“protease derived from Bacillus sp. NCIMB 40484” was tested, and the % of anti-nutritional factor degraded [1] was 100%, the % of anti-nutritional factor degraded [2] was 41% and the % of anti-nutritional factor degraded (soybean agglutinin (SBA)) was 21%.
